System: Arabidopsis thaliana T1 plants
Assay: Topramezone tolerance of transgenic Arabidopsis thaliana T1 plants (pesticide damage grade by bleached leaf area, score, resistance evaluation)
Assay type: in vivo
Settings: HPPD F372V mutants, Table 7
Summary of the method: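 Eighteen days after sowing, wild-type and HPPD-transgenic T1 Arabidopsis receive a topramezone spray at 1×, 2× or 4× field rate (25–100 g ai/ha) or water. Seven days later each plant is graded by its proportion of bleached leaf area.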

Molecule	Resistance evaluation (topramezone 25 g ai/ha (1x))	Resistance evaluation (topramezone 100 g ai/ha (4x))
AtHPPDm-F372V: Arabidopsis thaliana HPPD mutant F372V, SEQ ID NO: 349 (protein, AtHPPDm-F372V Amino Acid Sequence) MGHQNAAVSENQNHDDGAASSPGFKLVGFSKFVRKNPKSDKFKVKRFHHIEFWCGDATNVARRFSWGLGMRFSAKSDLSTGNMVHASYLLTSGDLRFLFTAPYSPSLSAGEIKPTTTASIPSFDHGSCRSFFSSHGLGVRAVAIEVEDAESAFSISVANGAIPSSPPIVLNEAVTIAEVKLYGDVVLRYVSYKAEDTEKSEFLPGFERVEDASSFPLDYGIRRLDHAVGNVPELGPALTYVAGFTGFHQFAEFTADDVGTAESGLNSAVLASNDEMVLLPINEPVHGTKRKSQIQTYLEHNEGAGLQHLALMSEDIFRTLREMRKRSSIGGFDFMPSPPPTYYQNLKKRVGDVLSDDQIKECEELGILVDRDDQGTLLQIVTKPLGDRPTIFIEIIQRVGCMMKDEEGKAYQSGGCGGFGKGNFSELFKSIEEYEKTLEAKQLVG	Poorly resistant	Non-resistant
CaHPPDm-F372V: Cicer arietinum HPPD mutant F372V, SEQ ID NO: 367 (protein, CaHPPDm-F372V Amino Acid Sequence) MGTIETQTGFKLVGFNNFVRTNPKSDRFKVKRFHHVEFWCPDATNTARRFSWGLGMPIVAKSDLSTGNQTHASYLLRSGDLNFLFTAAYSPSISLSAPHPTASIPSFSAPTSFAFSASHGLGVRAVAIEVDDAEFAYTTSVNHGAIPSSPPVVLDNRVKLAEVQLYGDVVLRYVSYNDPIETSNPNPNHWFLPGFEPVEETSSNQSIDFGIQRLDHAVGNVPELSSALNYVKQFTGFHEFAEFTAEDVGTSESGLNSTVLANNEETVLLPMNEPVYGTKRKSQIQTYLEHNEGAGLQHLALMSNDIFKTLREMRKRSGIGGFEFMPSPPPTYYSNLKKRVGDVLNDEQIKECEELGILVDKDDQGTLLQIVTKPVGDRPTIFIEIIQRVGCMLKDDEGKEYQKGGCGGFGKGNFSELFKSIEEYEKTLEIKRTA	Poorly resistant	Non-resistant
MsHPPDm-F372V: Medicago sativa HPPD mutant F372V, SEQ ID NO: 373 (protein, MsHPPDm-F372V Amino Acid Sequence) MAIETETQTQTGFKLVGFKNFVRANPKSDRFKVKRFHHVEFWCTDATNTARRFSHGLGMPIVAKSDLSTGNQTHASYLLRSGDLNFLFSAAYSPSISLSSPSSTAAIPTFSASNCFSFSASHGLAVRAVAVEVEDAELAFTTSVNNGAIPSSPPVILENHVKLAEVRLYGDVVLRYVSYNDPNPNQNPNLLFLPGFERVSDESSNSSLDFGIRRLDHAVGNVPELSSAVKYVKDFTGFHEFAEFTAEDVGTSESGLNSVVLANNEETVLLPMNEPVYGTKRKSQIETYLEHNEGAGLQHLALKSEDIFRTLREMRKRSGVGGFEFMPSPPVTYYRNLKNRVGDVLSDEQIKECEELGILVDRDDQGTLLQIVTKPIGDRPTIFIEIIQRVGCMLKDEEGKEYQKGGCGGFGKGNFSELFKSIEEYEKTLETRRTA	Poorly resistant	Non-resistant
BnHPPDm-F372V: Brassica napus HPPD mutant F372V, SEQ ID NO: 369 (protein, BnHPPDm-F372V Amino Acid Sequence) MGHENAAVCETQQHDDAASPGFKLVGFSKFVRKNPKSDKFKVKRFHHIEFWCGDATNVSRRFSWGLGMRFSAKSDLSTGNMVHASYLLTSGDLRFLFTAPYSPSLSAGEAQPSATASIPSFDHASCRSFFSSHGLGVRAVAIEVEDAESAFSISVANGAVPSSPPNVLNGAVTIAEVKLYGDVVLRYVSYYNGTVSFLPGFESVDDTSSFPLDYGIRRLDHAVGNVPELGPALTYLAGFTGFHQFAEFTADDVGTAESGLNSAVLANNDEMVLLPINEPVHGTKRKSQIQTFLEHNEGAGLQHLALMSEDIFRTLREMRKRSGVGGFDFMPSPPPTYYKNLKKRVGDVLSEEQIEECEELGILVDRDDQGTLLQIVTKPLGDRPTIFIEIIQRVGCMKRDEEGKVYQSGGCGGFGKGNFSELFKSIEEYEKTLEAKQLVG	Poorly resistant	Non-resistant
HvHPPDm-F372V: Hordeum vulgare HPPD mutant F372V, SEQ ID NO: 357 (protein, HvHPPDm-F372V Amino Acid Sequence) MPPTPTTPAATGAAAAVTPEHARPHRMVRFNPRSDRFHTLSFHHVEFWCADAASAAGRFAFALGAPLAARSDLSTGNSAHASQLLRSGSLAFLFTAPYANGCDAATASLPSFSADAARRFSADHGIAVRSVALRVADAAEAFRASRRRGARPAFAPVDLGRGFAFAEVELYGDVVLRFVSHPDGTDVPFLPGFEGVTNPDAVDYGLTRFDHVVGNVPELAPAAAYIAGFTGFHEFAEFTAEDVGTTESGLNSVVLANNSEGVLLPLNEPVHGTKRRSQIQTFLEHHGGPGVQHIAVASSDVLRTLRKMRARSAMGGFDFLPPPLPKYYEGVRRLAGDVLSEAQIKECQELGVLVDRDDQGVLLQIVTKPVGDRPTLFLEMIQRIGCMEKDERGEEYQKGGCGGFGKGNFSELFKSIEDYEKSLEAKQSAAVQGS	Highly resistant	Poorly resistant
GmHPPDm-F372V: Glycine max HPPD mutant F372V, SEQ ID NO: 365 (protein, GmHPPDm-F372V Amino Acid Sequence) MPMYTPSLSAPSSNHIQPSVTLPLYITTTKLNLKQQHHTTPMPIPMCNEIQAQAQAQAQPGFKLVGFKNFVRTNPKSDRFQVNRFHHIEFWCTDATNASRRFSWGLGMPIVAKSDLSTGNQIHASYLLRSGDLSFLFSAPYSPSLSAGSSAASSASIPSFDAATCLAFAAKHGFGVRAIALEVADAEAAFSASVAKGAEPASPPVLVDDRTGFAEVRLYGDVVLRYVSYKDAAPQAPHADPSRWFLPGFEAAASSSSFPELDYGIRRLDHAVGNVPELAPAVRYLKGFSGFHEFAEFTAEDVGTSESGLNSVVLANNSETVLLPLNEPVYGTKRKSQIETYLEHNEGAGVQHLALVTHDIFTTLREMRKRSFLGGFEFMPSPPPTYYANLHNRAADVLTVDQIKQCEELGILVDRDDQGTLLQIVTKPVGDRPTIFIEIIQRIGCMVEDEEGKVYQKGACGGFGKGNFSELFKSIEEYEKTLEAKRTA	Poorly resistant	Non-resistant
HaHPPDm-F372V: Helianthus annuus HPPD mutant F372V, SEQ ID NO: 371 (protein, HaHPPDm-F372V Amino Acid Sequence) MGTEATVAAVVAGDESDHPTSAFKLVGFKNFIRTNPMSDKFTVKNFHHIEFWCSDATNTARRFSWGLGMPIIFKSDLSTGNSTHASYLLRSGHLNFLFTAPYSPSISPTTTTASIPTFSHSASRHFTATHGLAVRAIAVEVEDAETAFAVSVANGAKPSSPPVTLGHNDVVLSEVKLYGDVVLRYVSYKNNTNNNNNNDNDNYIFLPGFEAMDKTSSFQELDYGIRRLDHAVGNVPELAPAVDYVKSFTGFHEFAEFTAEDVGTSESGLNSVVLACNSEMVLIPMNEPVYGTKRKSQIQTYLEHNEGAGVQHLALASEDIFRTLREMRKRSGVGGFEFMPSPPPTYYRNLKSRAGDVLSDEQIKECEELGILVDRDDQGTLLQIVTKPVGDRPTIFIEIIQRVGCMVKDDEGKVQQKAGCGGFGKGNFSELFKSIEEYEKTLEARSTTAA	Poorly resistant	Non-resistant
OsHPPDm-F372V: Oryza sativa HPPD mutant F372V, SEQ ID NO: 363 (protein, OsHPPDm-F372V Amino Acid Sequence) MPPTPTPTATTGAVSAAAAAGENAGFRLVGHRRFVRANPRSDRFQALAFHHVELWCADAASAAGRFAFALGAPLAARSDLSTGNSAHASLLLRSASVAFLFTAPYGGDHGVGADAATTASIPSFSPGAARRFAADHGLAVHAVALRVADAADAFRASVAAGARPAFQPADLGGGFGLAEVELYGDVVLRFVSHPDGADAPFLPGFEGVSNPGAVDYGLRRFDHVVGNVPELAPVAAYISGFTGFHEFAEFTAEDVGTAESGLNSVVLANNAETVLLPLNEPVHGTKRRSQIQTYLDHHGGPGVQHIALASDDVLGTLREMRARSAMGGFEFLAPPPPNYYDGVRRRAGDVLSEEQINECQELGVLVDRDDQGVLLQIVTKPVGDRPTFFLEMIQRIGCMEKDESGQEYQKGGCGGFGKGNFSELFKSIEEYEKSLEAKQAPTVQGS	Moderately resistant	Non-resistant
SbHPPDm-F372V: Sorghum bicolor HPPD mutant F372V, SEQ ID NO: 361 (protein, SbHPPDm-F372V Amino Acid Sequence) MPPTPTTAAATGAAVAAASAEQAAFRLVGHRNFVRVNPRSDRFHTLAFHHVELWCADAASAAGRFSFGLGAPLAARSDLSTGNTAHASLLLRSGALAFLFTAPYAHGADAATASLPSFSAAEARRFAADHGLAVRAVALRVADAEDAFRASVAAGARPAFEPVELGLGFRLAEVELYGDVVLRYVSYPDDADASFLPGFVGVTSPGAADYGLRRFDHIVGNVPELAPAAAYFAGFTGFHEFAEFTAEDVGTTESGLNSMVLANNAENVLLPLNEPVHGTKRRSQIQTYLDHHGGPGVQHMALASDDVLRTLREMQARSAMGGFEFMAPPAPEYYDGVRRRAGDVLTEAQIKECQELGVLVDRDDQGVLLQIVTKPVGDRPTLFLEIIQRIGCMEKDEKGQEYQKGGCGGFGKGNFSQLFKSIEDYEKSLEAKQAAAAQGS	Poorly resistant	Non-resistant
SiHPPDm-F372V: Setaria italica HPPD mutant F372V, SEQ ID NO: 359 (protein, SiHPPDm-F372V Amino Acid Sequence) MPPTPTPAAAAPGAAAAPAAGDQAAFRLVGHRGFVRVNPRSDRFHTLSFHHVELWCADATSAAGRFSFGLGAPLAARSDLSTGNSAHASLLLRSGSLAFLFTAPYAHGVDAATASLPSFSAPAARSFAADHGLAVRAIGLRVADAEDAFRASVAAGARPAFKPVELGLGFRLAEVELYGDVVLRYVSYPDAEDAPFLPGFENVNNPGALNYGLRRFDHIVGNVPELAPVAAYVAGFTGFHEFAEFTAEDVGTAESGLNSMVLANNSETVLIPLNEPVHGTKRRSQIQTFLDHNGGPGVQHIALASDDVLRTLREMQARSAMGGFEFMAAPPPDYYEGVRRRAGDVLSEAQIKECQELGVLVDRDDQGVLLQIVTKPVGDRQTLFLEIIQRIGCMEKDEQGQEYQKGGCGGFGKGNFSQLFKSIEDYEKSLESKQAAAVQGS	Moderately resistant	Poorly resistant
